Data: patent publication US20260125477A1 (BEIJING MABWORKS BIOTECH, published 2026)
One block for each binder: values may come before it.

Experiments:
Assay in all cases: SPR (Biacore T200), antibody captured on Protein A chip, response at 200 nM antigen
[1] = target: T1, human B7-2/CD86 protein, with His tag (human, UniProt P42081 26-247, limits assumed)
T1 construct: Bought protein
T1 sequence (looked up): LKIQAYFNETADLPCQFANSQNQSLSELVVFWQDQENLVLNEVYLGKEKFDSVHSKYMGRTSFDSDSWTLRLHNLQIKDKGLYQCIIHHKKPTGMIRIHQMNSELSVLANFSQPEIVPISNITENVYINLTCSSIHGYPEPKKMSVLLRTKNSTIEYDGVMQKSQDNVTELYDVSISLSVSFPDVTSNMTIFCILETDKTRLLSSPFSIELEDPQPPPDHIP
Protocol: (§1) The anti-human B7-H3 antibodies were tested for their binding capability to B7 family proteins by SPR using Biacore T200 biosensor (Biacore, US) provided with a pre-fixed Protein A sensor chip.
(§2) The dissociation was monitored for 600 sec. The data was analyzed using Biacore 8k evaluation software version 3.0, to obtain the binding responses, and the protein concentration-binding response curves were plotted, to determine the cross-reaction of the anti-human B7-H3 antibodies to the B7 family proteins.

[2] = target: T2, human PD-L2/B7-DC protein, with His tag (human, UniProt Q9BQ51 20-219, limits assumed)
T2 construct: Bought protein
T2 sequence (looked up): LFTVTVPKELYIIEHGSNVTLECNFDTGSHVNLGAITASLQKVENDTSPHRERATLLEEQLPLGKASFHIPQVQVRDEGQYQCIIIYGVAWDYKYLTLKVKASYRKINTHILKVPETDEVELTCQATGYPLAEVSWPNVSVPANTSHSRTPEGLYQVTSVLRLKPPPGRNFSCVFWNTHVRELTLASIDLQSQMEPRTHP
Protocol: as §1, §2

[3] = target: T3, human PD-L1/B7-H1 protein, with His tag (human, UniProt Q9NZQ7 19-238)
T3 construct: Bought protein
Protocol: as §1, §2

[4] = target: T4, human B7-H2/ICOSLG protein, with His tag (human, UniProt O75144 19-258, limits assumed)
T4 construct: Bought protein
T4 sequence (looked up): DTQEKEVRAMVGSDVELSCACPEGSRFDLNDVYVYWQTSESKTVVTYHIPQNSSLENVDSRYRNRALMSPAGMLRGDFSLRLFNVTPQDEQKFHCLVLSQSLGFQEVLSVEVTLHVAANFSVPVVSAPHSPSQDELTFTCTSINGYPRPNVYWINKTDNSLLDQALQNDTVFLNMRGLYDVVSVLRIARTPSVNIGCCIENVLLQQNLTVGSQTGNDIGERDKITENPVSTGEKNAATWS
Protocol: as §1, §2

[5] = target: T5, human B7-H4 protein, with His tag (MALS verified) (human, UniProt Q7Z7D3 29-258, limits assumed)
T5 construct: Bought protein
T5 sequence (looked up): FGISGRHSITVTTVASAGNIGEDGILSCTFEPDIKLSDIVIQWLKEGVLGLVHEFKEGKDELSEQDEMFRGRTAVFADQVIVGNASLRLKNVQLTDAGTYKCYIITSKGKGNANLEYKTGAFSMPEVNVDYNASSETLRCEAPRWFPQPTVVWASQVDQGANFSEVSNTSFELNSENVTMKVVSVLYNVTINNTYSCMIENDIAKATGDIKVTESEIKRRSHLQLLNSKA
Protocol: as §1, §2

[6] = target: T6, human B7-H6/NCR3LG1 protein, with His tag (human, UniProt Q68D85 25-262, limits assumed)
T6 construct: Bought protein
T6 sequence (looked up): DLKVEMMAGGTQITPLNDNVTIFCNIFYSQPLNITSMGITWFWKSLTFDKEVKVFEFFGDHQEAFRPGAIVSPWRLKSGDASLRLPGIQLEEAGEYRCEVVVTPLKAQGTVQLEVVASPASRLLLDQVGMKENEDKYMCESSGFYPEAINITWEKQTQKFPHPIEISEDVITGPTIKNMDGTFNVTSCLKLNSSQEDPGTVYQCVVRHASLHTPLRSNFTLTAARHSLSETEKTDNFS
Protocol: as §1, §2

[7] = target: T7, human B7-H7/HHLA2 protein, with His tag (MALS verified) (human, UniProt Q9UM44 23-344, limits assumed)
T7 construct: Bought protein
T7 sequence (looked up): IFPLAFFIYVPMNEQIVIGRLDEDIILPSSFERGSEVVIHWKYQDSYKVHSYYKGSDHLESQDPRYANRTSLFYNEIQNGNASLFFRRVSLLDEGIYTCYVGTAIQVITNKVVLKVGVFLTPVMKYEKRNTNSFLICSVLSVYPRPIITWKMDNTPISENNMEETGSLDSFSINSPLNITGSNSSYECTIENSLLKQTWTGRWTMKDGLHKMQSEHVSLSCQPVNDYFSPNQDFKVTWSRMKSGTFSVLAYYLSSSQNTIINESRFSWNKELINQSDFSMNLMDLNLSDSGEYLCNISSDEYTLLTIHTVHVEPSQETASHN
Protocol: as §1, §2

[8] = target: T8, recombinant human B7-H3 (4Ig) protein, with His tag (human, UniProt Q5ZPR3 29-461, limits assumed)
T8 construct: Bought protein; also called human B7-H3 (4Ig)/B7-H3b protein
T8 sequence (looked up): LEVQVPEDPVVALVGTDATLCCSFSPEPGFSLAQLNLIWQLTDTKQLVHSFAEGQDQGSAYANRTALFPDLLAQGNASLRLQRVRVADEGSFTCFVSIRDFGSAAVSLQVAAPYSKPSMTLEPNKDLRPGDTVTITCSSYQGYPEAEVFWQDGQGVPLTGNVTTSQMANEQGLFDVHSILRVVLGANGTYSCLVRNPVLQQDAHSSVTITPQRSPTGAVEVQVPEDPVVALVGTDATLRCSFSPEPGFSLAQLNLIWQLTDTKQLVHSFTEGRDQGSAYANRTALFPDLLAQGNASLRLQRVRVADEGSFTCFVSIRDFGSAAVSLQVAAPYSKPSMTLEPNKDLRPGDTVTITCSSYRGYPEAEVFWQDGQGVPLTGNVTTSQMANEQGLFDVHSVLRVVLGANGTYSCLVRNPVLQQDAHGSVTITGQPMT
Protocol: as §1, §2

T3 sequence (Q9NZQ7 19-238 limits assumed): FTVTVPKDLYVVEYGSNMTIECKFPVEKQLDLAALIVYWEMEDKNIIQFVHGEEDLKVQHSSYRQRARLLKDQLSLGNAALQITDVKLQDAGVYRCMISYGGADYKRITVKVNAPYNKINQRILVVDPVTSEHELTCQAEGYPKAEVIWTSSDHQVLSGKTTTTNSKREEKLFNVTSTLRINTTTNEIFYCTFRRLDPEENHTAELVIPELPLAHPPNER

B2: 10D7 (antibody, human IgG1, kappa, V domains shown)
VH: QVQLVQSGPGLVKPSETLSLTCTVSGGSISRSSYYWGWIRQPPGKGLEWIGNIFYAGSTYYNPSLKSRVTISVDTSKNQFSLKLSSVTAADTAVYYCARRITGTTGWFDPWGQGTLVTVSS
VL: DIQLTQSPSSLSASVGDRVTITCRASQGIRNDLGWYQQKPGKAPKLLIYAASTLQSGVPSRFSGSGSGTDFTLTISSLQPEDFATYYCLQDYNYPRTFGQGTKVEIKR
notes: also called 10D7-WT; Ab10D7
Response (RU) [1]: -0.2 RU | Response (RU) [2]: -0.2 RU | Response (RU) [3]: 0.3 RU | Response (RU) [4]: -0.1 RU | Response (RU) [5]: 0.3 RU | Response (RU) [6]: -0.5 RU | Response (RU) [7]: 0.2 RU | Response (RU) [8]: 41.9 RU

B3: 6B5 (antibody, human IgG1, kappa, V domains shown)
VH: QVQLVESGPGLVKPSQTLSLTCTVSDGSISSGGYYWSWIRQHPGKGLEWIGYIYYSGGTYYSPSLKSRVTISVDTSKNQFSLKLTSVTAADTAVYYCARRAGYSSSFDSWGQGILVTVSS
VL: EIVLTQSPLSLPVTPGEPASISCRSSQSLLYSNGYTYLDWYLQKPGQSPQFLIYLGFNRASGVPDRFSGSGSGTDFTLKISRVEAEDVGVYYCMQGLQTPYTFGQGTKLEIKR
notes: also called 6B5-WT; Ab6B5
Response (RU) [1]: 0.3 RU | Response (RU) [2]: -0.2 RU | Response (RU) [3]: 1 RU | Response (RU) [4]: 0.9 RU | Response (RU) [5]: 0.5 RU | Response (RU) [6]: -0.2 RU | Response (RU) [7]: 1.3 RU | Response (RU) [8]: 34.8 RU

The remaining lines, values ahead:

Response (RU) [1]: 0.5 RU | Response (RU) [2]: 0 RU | Response (RU) [3]: 0.5 RU | Response (RU) [4]: 0.9 RU | Response (RU) [5]: 0.3 RU | Response (RU) [6]: -0.4 RU | Response (RU) [7]: 1.7 RU | Response (RU) [8]: 32.5 RU
B1: 10F5 (antibody, human IgG1, kappa, V domains shown)
VH: QVQLVQSGAEVKKPGSSVKVSCKASGGTFSSQAISWVRQAPGQGLEWMGRIIPMLGIGDYAQSFQGRVTITADKSTSTAYLEVSSLGSEDTAVYYCAREGIAALGTNYYYGMDVWGQGTAVTVSS
VL: EIVMTQSPSSVSASVGDRVTITCRASQGISRWLAWYQQKPGKAPKLLIYVASSLQSGVPSRFSGSGSGTDFTLTISSLQPEDFATYYCQQANSFPFTFGPGTKVDIRR
notes: also called Ab10F5

Response (RU) [1]: -1.5 RU | Response (RU) [2]: -1.2 RU | Response (RU) [3]: -2.2 RU | Response (RU) [4]: -2 RU | Response (RU) [5]: -2 RU | Response (RU) [6]: -2.2 RU | Response (RU) [7]: -1.3 RU | Response (RU) [8]: 25.7 RU
B4: Enoblituzumab (antibody, human IgG1, kappa, V domains shown)
VH: EVQLVESGGGLVQPGGSLRLSCAASGFTFSSFGMHWVRQAPGKGLEWVAYISSDSSAIYYADTVKGRFTISRDNAKNSLYLQMNSLRDEDTAVYYCGRGRENIYYGSRLDYWGQGTTVTVSS
VL: DIQLTQSPSFLSASVGDRVTITCKASQNVDTNVAWYQQKPGKAPKALIYSASYRYSGVPSRFSGSGSGTDFTLTISSLQPEDFATYYCQQYNNYPFTFGQGTKLEIKR
notes: Humanized anti-B7-H3 antibody of MacroGenics with optimised Fc, used as the positive control; also called AbEno; enoblituzumab-IgG1-Mut
